Source: PMC12319226 (Frontiers in Bioinformatics, 2025)
Substitutions are numbered along the chain they refer to.

Legend:
Assay in all cases: BLI
Settings in all cases: both partners purified
fHbp m001497 = molecular target: T1, fHbp m001497 (Neisseria meningitidis, fHbp …, point mutant)
T1 chain: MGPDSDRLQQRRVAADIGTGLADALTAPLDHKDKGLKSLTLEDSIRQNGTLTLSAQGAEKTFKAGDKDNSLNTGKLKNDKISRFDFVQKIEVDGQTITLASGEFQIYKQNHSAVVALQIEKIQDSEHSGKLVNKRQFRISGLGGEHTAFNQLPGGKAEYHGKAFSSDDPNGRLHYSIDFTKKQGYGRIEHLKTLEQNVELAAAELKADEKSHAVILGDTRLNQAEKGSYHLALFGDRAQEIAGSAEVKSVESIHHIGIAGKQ

fHbp m001118 = molecular target: T2, fHbp m001118 (Neisseria meningitidis fHbp v3.28-based …, point mutant)
T2 chain: T1 chain with N222G, Q223S, S249T, S252G

fHbp m001659 = molecular target: T3, fHbp m001659 (Neisseria meningitidis, fHbp …, point mutant)
T3 chain: T1 chain with Q223G

fHbp m001200 = molecular target: T4, fHbp m001200 (Neisseria meningitidis fHbp v3.28-based …, point mutant)
T4 chain: T1 chain with N222G, Q223G, S249T

fHbp m001661 = molecular target: T5, fHbp m001661 (Neisseria meningitidis, fHbp …, point mutant)
T5 chain: T1 chain with Q223G, E251N, S252G

fHbp m001531 = molecular target: T6, fHbp m001531 (Neisseria meningitidis, fHbp …, point mutant)
T6 chain: T1 chain with S249T, E251V, S252A

fHbp m001152 = molecular target: T7, fHbp m001152 (Neisseria meningitidis fHbp v3.28-based …, point mutant)
T7 chain: T1 chain with N222G, Q223S, S249I, E251V

fHbp m002419 = molecular target: T8, fHbp m002419 (Neisseria meningitidis fHbp v3.28, …, chimera)
T8 chain: T1 chain with L221Y, Q223G, S249T, E251V, S252G

fHbp m001180 = molecular target: T9, fHbp m001180 (Neisseria meningitidis fHbp v3.28-based …, point mutant)
T9 chain: T1 chain with N222G, Q223G, E251V, S252A

B1: mAb 1E6 (human) (antibody, V domains shown)
VH: EVQLVQSGAEVKKPGSSVKVSCKASGGTVIDYPITWVRQAPGQGLEWVGGFVPLFRTSNYGQKFQGRVTITADKSTSTASMELNSLTSEDTAIYYCARGDTAMGPFDYWGQGTLVTVSS
VL: SYVLTQPPSLSVAPGKTATLTCGGNNIAGKTVHWYQQRPGQAPVLVISYDSDRPSGIPERFSGSNSANTATLTISRVEAGDEADYYCQVWDRNSDHWVFGGGTKLTVL
notes: source: Expi293, purified (MabSelect SuRe, SEC); copies: 2 + 2
fHbp m001497
  Kd: 0.563 nM
  koff: 0.000176 s⁻¹
  kon: 311700 ± 2460 M⁻¹ s⁻¹
fHbp m001118
  Kd: 0.235 nM
  koff: 8.5e-05 s⁻¹
  kon: 361600 ± 2210 M⁻¹ s⁻¹
fHbp m001659
  Kd: 0.716 nM
  koff: 0.000306 s⁻¹
  kon: 427300 ± 1410 M⁻¹ s⁻¹
fHbp m001200
  Kd: 0.219 nM
  koff: 0.000303 s⁻¹
  kon: 1.385e+06 ± 5610 M⁻¹ s⁻¹
fHbp m001661
  Kd: 0.678 nM
  koff: 0.000193 s⁻¹
  kon: 285300 ± 2180 M⁻¹ s⁻¹
fHbp m001531
  Kd: 0.546 nM
  koff: 0.0002 s⁻¹
  kon: 367300 ± 1990 M⁻¹ s⁻¹
fHbp m001152
  Kd: 0.291 nM
  koff: 0.000121 s⁻¹
  kon: 415300 ± 2380 M⁻¹ s⁻¹
fHbp m002419
  Kd: 0.191 nM
  koff: 5.3e-05 s⁻¹
  kon: 277200 ± 2090 M⁻¹ s⁻¹
fHbp m001180
  Kd: 0.574 nM
  koff: 0.000278 s⁻¹
  kon: 485200 ± 1980 M⁻¹ s⁻¹

B2: chimeric antibody h12C1 (antibody, V domains shown)
VH: QVQLQESGPELVKPGASVKISCKASGYSFSDYNMSWVKQSNGKSLEWIGIIDPKYGTINYNQKFKGKATLTVDQASSTAYMQLNSLTSEDSAVYYCVRDYYGSSYFDYWGQGTTLTVSS
VL: DIVLTQSPSSIYASLGERVTLTCKASQDIHNYLNWFQQKPGKSPKTLIYRANRLVDGVPSRFSGGGSGQDYSLTISSLEFEDIGIYYCLQYDEFPPTFGGGTRLEIK
notes: also called humanized 12C1; source: Expi293, purified (MabSelect SuRe, SEC); copies: 2 + 2
fHbp m001497
  Kd: 3.06 nM
  koff: 0.000593 s⁻¹
  kon: 193000 ± 2790 M⁻¹ s⁻¹
fHbp m001118
  Kd: 42 nM
  koff: 0.0103 s⁻¹
  kon: 245000 ± 3100 M⁻¹ s⁻¹
fHbp m001659
  Kd: 1.75 nM
  koff: 0.000578 s⁻¹
  kon: 330000 ± 3440 M⁻¹ s⁻¹
fHbp m001200
  Kd: 0.243 nM
  koff: 0.000202 s⁻¹
  kon: 830700 ± 4100 M⁻¹ s⁻¹
fHbp m001661
  Kd: 167 nM
  koff: 0.0207 ± 0.000141 s⁻¹
  kon: 124000 ± 4490 M⁻¹ s⁻¹
fHbp m001531
  Kd: 0.717 nM
  koff: 0.00022 s⁻¹
  kon: 307400 ± 2940 M⁻¹ s⁻¹
fHbp m001152
  Kd: 45.9 nM
  koff: 0.00937 s⁻¹
  kon: 204000 ± 3360 M⁻¹ s⁻¹
fHbp m002419
  Kd: 0.237 nM
  koff: 3.39e-05 s⁻¹
  kon: 143000 ± 1520 M⁻¹ s⁻¹
fHbp m001180
  Kd: 69.9 nM
  koff: 0.0158 s⁻¹
  kon: 227000 ± 3250 M⁻¹ s⁻¹
